Results from patent US6362326B1, “11 cby genomic sequence” (SmithKline Beecham Corporation, priority 1998, dated 2002).

Target: 11cby polypeptide of SEQ ID NO: 2 (Homo sapiens, UniProt Q99705)
Assay: binding of 11cby polypeptide to melanin-concentrating hormone
Conditions: qualitative statement, method or value not given

Sequence of 11cby polypeptide of SEQ ID NO: 2 (Q99705 whole entry): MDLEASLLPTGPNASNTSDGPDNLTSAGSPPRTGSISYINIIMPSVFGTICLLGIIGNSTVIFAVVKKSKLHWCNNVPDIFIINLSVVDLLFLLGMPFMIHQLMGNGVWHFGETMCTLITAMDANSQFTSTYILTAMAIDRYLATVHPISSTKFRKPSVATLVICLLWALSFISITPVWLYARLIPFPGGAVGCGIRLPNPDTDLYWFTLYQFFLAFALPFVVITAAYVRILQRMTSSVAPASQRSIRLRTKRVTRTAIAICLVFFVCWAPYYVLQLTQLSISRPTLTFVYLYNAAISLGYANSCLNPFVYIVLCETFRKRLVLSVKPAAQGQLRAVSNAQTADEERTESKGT

Q: For “H-Asp-Phe-Asp-Met-Leu-Arg-Cys-Met-Leu-Gly-Arg-Val-Tyr-Arg-Pro-Cys-Trp-Gln-Val-OH [MCH]”, which “binding to 11cby polypeptide (7-transmembrane receptor)” value is on record?
A: The value was “bind”.
